Data as given in publication PMC4357698.

Columns and labels:
[1] = molecular target: 43S preinitiation complex reconstituted from purified components (UniProt P62841); experiment: co-sedimentation
40S ribosomal subunit = 40S ribosomal subunit (UniProt P62841); experiment: co-sedimentation

human SRP9/14 protein dimer (from UniProt P49458 1-86; P37108 1-136) (complex)
fold reduction of bound SRP9/14 against the scAluY^A RNP sample [1]: 3 fold
percent of SRP9/14 comigrating with the complex [1]: 15%
share of h9/14 comigrating with the subunit (fraction of h9/14) (40S ribosomal subunit): 0.33
stoichiometry N (binding sites on 40S) (40S ribosomal subunit): > 1
